Substitutions are numbered along the chain they refer to. Numbers in names are those of the source.

For assay [1], the target named is T1, cynomolgus monkey FcγRIIIaS extracellular domain with C-terminal His-tag (cynomolgus monkey, UniProt Q8SPW2 21-206 at identity 1.00)).
T1 construct: also called cyno FcgRIIIaS; cynoFcγRIIIaS
T1 chain: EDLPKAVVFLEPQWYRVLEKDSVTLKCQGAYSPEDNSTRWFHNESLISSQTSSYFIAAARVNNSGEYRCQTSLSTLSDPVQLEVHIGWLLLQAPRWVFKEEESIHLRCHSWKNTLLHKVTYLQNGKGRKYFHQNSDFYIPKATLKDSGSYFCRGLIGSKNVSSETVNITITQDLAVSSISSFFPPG
Put plainly: SPR, KD(SG1)/KD(variant). (In general: Surface plasmon resonance follows binding to a sensor surface in real time, without labels.)

In assay [2] the target is T2, cynomolgus monkey FcγRIIa3 extracellular domain with C-terminal His-tag (cynomolgus monkey).
T2 construct: also called cyno FcgRIIa3; cynoFcγRIIa3; not shown: His-tag added to the C-terminus
T2 chain: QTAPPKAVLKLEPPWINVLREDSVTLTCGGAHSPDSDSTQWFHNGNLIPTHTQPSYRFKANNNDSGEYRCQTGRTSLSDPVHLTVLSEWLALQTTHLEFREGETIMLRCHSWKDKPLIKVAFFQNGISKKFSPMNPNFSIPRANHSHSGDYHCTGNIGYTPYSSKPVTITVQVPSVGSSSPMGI
Put plainly: SPR (BIACORE), antibody captured, FcgR analyte.

Assay [3] has as its target T3, cynomolgus monkey FcγRIIb extracellular domain with C-terminal His-tag (cynomolgus monkey).
T3 construct: also called cyno FcgRIIb; cynoFcγRIIb; not shown: His-tag added to the C-terminus
T3 chain: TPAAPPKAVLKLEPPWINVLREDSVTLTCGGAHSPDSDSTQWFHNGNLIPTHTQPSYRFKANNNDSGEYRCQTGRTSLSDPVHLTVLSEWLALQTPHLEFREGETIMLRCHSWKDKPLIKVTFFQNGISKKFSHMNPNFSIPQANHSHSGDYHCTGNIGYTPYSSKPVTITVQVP
In words: SPR (BIACORE), antibody captured, FcgR analyte.

For assay [4], the target named is T4, cynomolgus monkey FcγRIIIaS extracellular domain with C-terminal His-tag (cynomolgus monkey, UniProt A3RFZ7 21-206 (rhesus entry)).
T4 construct: also called cyno FcgRIIIaS; cynoFcγRIIIaS; not shown: His-tag added to the C-terminus
Put plainly: SPR (BIACORE), antibody captured, FcgR analyte.

Assay [5] has as its target T1, cynomolgus monkey FcγRIIIaS …. In words: SPR, KD(parent SG1)/KD(variant).
Assay [6] deals with T5, human FcγRIIaH extracellular domain with C-terminal His-tag (human, UniProt P12318 34-217).
T5 construct: also called human FcgRIIaH; FcγRIIa (type H)
T5 sequence: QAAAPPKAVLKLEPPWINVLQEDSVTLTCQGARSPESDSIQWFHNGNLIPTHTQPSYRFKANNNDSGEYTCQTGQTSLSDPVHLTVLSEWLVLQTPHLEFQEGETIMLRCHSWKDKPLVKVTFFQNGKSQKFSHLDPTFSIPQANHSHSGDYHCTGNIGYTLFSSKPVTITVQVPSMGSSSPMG
In words: SPR, KD(parent SG1)/KD(variant).

For assay [7], the target named is T6, human FcγRIIb extracellular domain with C-terminal His-tag (human, UniProt P31994 43-217).
T6 construct: also called human FcgRIIb
T6 sequence: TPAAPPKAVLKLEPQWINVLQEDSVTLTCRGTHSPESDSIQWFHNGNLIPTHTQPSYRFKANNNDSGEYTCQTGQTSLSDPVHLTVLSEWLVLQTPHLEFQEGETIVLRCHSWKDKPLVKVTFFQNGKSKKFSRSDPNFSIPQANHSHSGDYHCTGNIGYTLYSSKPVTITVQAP
Put plainly: SPR, KD(parent SG1)/KD(variant).

In assay [8] the target is T7, cynomolgus monkey FcγRIIa3 extracellular domain with C-terminal His-tag (cynomolgus monkey).
T7 construct: also called cyno FcgRIIa3; cynoFcγRIIa3
T7 chain: T2 chain
Put plainly: SPR (Biacore), KD of SG1 / KD of variant. The protocol: (§1) The kinetic analysis of interactions between these antibodies and FcγR was carried out using BIACORE® T200 or BIACORE® 4000 (GE Healthcare). HBS-EP+ (GE Healthcare) was used as the running buffer, and the measurement temperature was set to 25° C. […] After the measurement, the antibody captured on the chip was washed off by allowing reaction with 10 mM glycine-HCl, pH1.5 and 25 mM NaOH so that the chip was regenerated and used repeatedly. The sensorgrams obtained as measurement results were analyzed by the 1:1 Langmuir binding model using the BIACORE® Evaluation Software to calculate the binding rate constant ka (L/mol/s) and dissociation rate constant kd (1/s), and the dissociation constant KD (mol/L) was calculated from these values. […] Regarding such interactions, KD values were calculated using the following 1:1 binding model described in BIACORE® T100 Software Handbook BR1006-48 Edition AE.

Assay [9] addresses T8, human FcγRIIaR extracellular domain with C-terminal His-tag (human, UniProt P12318 34-217).
T8 construct: also called human FcgRIIaR; FcγRIIa (type R)
T8 chain: T5 sequence with H134R
Put plainly: SPR (Biacore), antibody captured, FcgR analyte. The protocol: as §1

For assay [10], the target named is T9, human FcγRIIIaV extracellular domain with C-terminal His-tag (human, UniProt P08637 17-208).
T9 construct: also called human FcgRIIIaV
In words: SPR (Biacore), antibody captured, FcgR analyte. On the procedure:
as §1
T9 sequence (P08637 17-208 F176V): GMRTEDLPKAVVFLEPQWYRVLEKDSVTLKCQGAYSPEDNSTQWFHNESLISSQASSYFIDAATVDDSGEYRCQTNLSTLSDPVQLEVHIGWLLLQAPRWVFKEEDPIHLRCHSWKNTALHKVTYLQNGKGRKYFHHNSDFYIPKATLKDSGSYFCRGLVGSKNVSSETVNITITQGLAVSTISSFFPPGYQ

The target of assay [11] is T10, human FcγRIIb extracellular domain with C-terminal His-tag (human, UniProt P31994 43-217).
T10 construct: also called human FcgRIIb; not shown: His-tag added to the C-terminus
T10 sequence: T6 sequence
Put plainly: SPR (BIACORE), antibody captured, FcgR analyte.

The target of assay [12] is T11, human FcγRIIaR extracellular domain with C-terminal His-tag (human, UniProt P12318 34-217).
T11 construct: also called human FcgRIIaR; FcγRIIa type R; not shown: His-tag added to the C-terminus
T11 chain: T5 sequence with H134R
In words: SPR (BIACORE), antibody captured, FcgR analyte.

Assay [13] deals with T12, human FcγRIIIaV extracellular domain with C-terminal His-tag (human, UniProt P08637 17-208).
T12 construct: also called human FcgRIIIaV; not shown: His-tag added to the C-terminus
Put plainly: SPR (BIACORE), antibody captured, FcgR analyte.
T12 sequence (P08637 17-208 F176V): as above

B1: M103205H795-MY538/M103202L889-SK1 (antibody, human IgG1, kappa, name in EU numbering)
heavy: QVTLKESGPVLVKPTETLTLTCTVSGIDLSHDDISWVRQAPGKGLEWVGIISYAGSTYYASWAKGRLTISKDTSKNQVVLTMTNMDPVDTATYYCARGVPAYSHGGDLWGQGTLVTVSSASTKGPSVFPLAPSSKSTSGGTAALGCLVKDYFPEPVTVSWNSGALTSGVHTFPAVLQSSGLYSLSSVVTVPSSSLGTQTYICNVNHKPSNTKVDKKVEPKSCDKTHTCPPCPGPEWLTGPSVFLFPPKPKDTLMISRTPEVTCVVVDVSDEDPEVKFNWYVDGVEVHNAKTKPREELYNSTYRVVSVLTVLHQDWLNGKEYKCKVSNKALPKPIEKTISKAKGQPREPQVYTLPPSREEMTKNQVSLTCLVKGFYPSDIAVEWESNGQPENNYKTTPPVLDSDGSFFLYSKLTVDKSRWQQGNVFSCSVMHEALHNHYTQKSLSLSP
light: DIVMTQSPATLSLSPGERATLSCTSSQSVYHANWLSWFQQKPGQPPKLLIYWASTLAYGVPSRFSGSGSGTDFTLTISSLQPEDAATYYCAGGYGGGRYAFGQGTKVEIKRTVAAPSVFIFPPSDEQLKSGTASVVCLLNNFYPREAKVQWKVDNALQSGNSQESVTEQDSKDSTYSLSSTLTLSKADYEKHKVYACEVTHQGLSSPVTKSFNRGEC
notes: copies: 2 + 2
For the molecule B1, in [1], the “KD fold (SG1 = 1)” value was 0.25 fold.

B2: M103205H795-MY212/M103202L889-SK1 (antibody, human IgG1, kappa, name in EU numbering)
heavy: B1 heavy with G233A, W236L, T238N, S241V, K328T
light: B1 light
notes: Fc variant of MS1032LO06-SG1; positions in EU numbering
For orientation: Kd means a measure of binding affinity in units of concentration. B2: the Kd in [2] came out at 2900 nM; in assay [3], 570 nM; in [4], 2600 nM.

B3: MS1032LO06-SG1034 (antibody, human IgG1, kappa, name in EU numbering)
heavy: B1 heavy with G233A, W236L, L297Q, Q313R, D415K, N436A
light: B1 light
notes: tied to rows r12/r30 by row order only; also called MS103205H795-SG1034; copies: 2 + 2
Consider B3, for which the “KD fold (SG1 = 1)” value in assay [5] worked out at 0.11 fold; in [6], 2.7 fold; in assay [7], 1 fold.

B4: M103205H795-MY448/M103202L889-SK1 (antibody, human IgG1, kappa)
heavy: B1 heavy with G233A, P234K, W236L, L297Q
light: B1 light
notes: Substitutions in EU numbering on SG1
For the molecule B4, the “KD fold (SG1 = 1)” value in assay [8] was 0.6 fold. In addition, the Kd in [9] turned out to be 21 nM; in [10], 1300 nM.

B5: M103205H795-MY288/M103202L889-SK1 (antibody, human IgG1, kappa, name in EU numbering)
heavy: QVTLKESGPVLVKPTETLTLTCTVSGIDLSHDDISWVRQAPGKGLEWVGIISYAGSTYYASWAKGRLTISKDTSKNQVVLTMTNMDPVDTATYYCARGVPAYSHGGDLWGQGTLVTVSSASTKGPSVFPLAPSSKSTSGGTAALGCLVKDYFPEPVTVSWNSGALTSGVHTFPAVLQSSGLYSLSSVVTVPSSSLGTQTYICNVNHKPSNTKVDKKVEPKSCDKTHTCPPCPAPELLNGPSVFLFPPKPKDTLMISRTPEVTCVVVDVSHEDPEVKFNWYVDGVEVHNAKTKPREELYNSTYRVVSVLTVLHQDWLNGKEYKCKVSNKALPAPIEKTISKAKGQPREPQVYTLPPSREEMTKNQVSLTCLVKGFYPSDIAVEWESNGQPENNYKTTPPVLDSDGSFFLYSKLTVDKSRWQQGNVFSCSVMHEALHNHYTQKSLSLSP
light: B1 light
notes: as for B2
Turning to B5, the Kd worked out at 1200 nM in assay [3], 1.3 nM in assay [4] and 5100 nM in assay [11].

B6: MS1032LO19-SG1080 (antibody, name in EU numbering)
heavy: QVQLVESGGGLVQPGGSLRLSCAVSGIDLSHDDISWVRQAPGKGLEWVSIISYAGSTYYASWAKGRLTISKDTSKNQVVLTMTNMDPVDTATYYCARGVPAYSHGGDLWGQGTLVTVSSASTKGPSVFPLAPSSKSTSGGTAALGCLVKDYFPEPVTVSWNSGALTSGVHTFPAVLQSSGLYSLSSVVTVPSSSLGTQTYICNVNHKPSNTKVDKKVEPKSCDKTHTCPPCPAPELLNGPSVFLFPPKPKDTLMISRTPEVTCVVVDVSDEDPEVKFNWYVDGVEVHNAKTKPREELYNSTYRVVSVLTVLHRDWLNGKEYKCKVSNTALPKPIEKTISKAKGQRREPQVYTLPPSREEMTKNQVSLTCLVKGFYPSDIAVEWESNGQPENNYKTTPPVLDSDGSFFLYSKLTVDKSRWQQGNVFSCSVMHEALHAHYTRKELSLSP
light: B1 light with S25T, A32E
notes: tied to rows r18/r36 by row order only; also called MS103240H795-SG1080
For B6, the entries for the “KD fold (SG1 = 1)” value in assay [5] and in assay [6] were 0.18 fold and 2.5 fold, respectively.

B7: MS1032LO06-SG1033 (antibody, human IgG1, kappa, name in EU numbering)
heavy: B1 heavy with G233A, W236L, T238N, L297Q, N436A
light: B1 light
notes: tied to rows r11/r29 by row order only; also called MS103205H795-SG1033; copies: 2 + 2
As for B7, the figures for the “KD fold (SG1 = 1)” value in [5], in assay [6] and in [7] were 0.06 fold, 0.5 fold and 1 fold, respectively.

B8: M103205H795-MY210/M103202L889-SK1 (antibody, human IgG1, kappa, name in EU numbering)
heavy: B1 heavy with G233A, W236L, T238N, L297Q, K328T
light: B1 light
notes: as for B2
With B8, the Kd in [2] worked out at 2300 nM; in assay [3], 280 nM; in [4], 2400 nM; in [12], 1400 nM; in [13], 31000 nM.

B9: M103205H795-MY265/M103202L889-SK1 (antibody)
heavy: B1 heavy with G233A, W236L, L297Q
light: B1 light
notes: Substitutions in EU numbering on SG1; the cell prints I236T, the text gives Thr at 236 of MY201 (G236T)
Regarding B9, the Kd in assay [10] came out at 5400 nM.

(Values after US20250076311A1 (Chugai, published 2025).)
